From patent publication US20240018513A1, “SYNTHETIC INTRONS FOR TARGETED GENE EXPRESSION” (FRED HUTCHINSON CANCER CENTER, priority 2020, published 2024)

Key:
[1] = system: MEL202 cells (SF3B1R625G); experiment: RT-PCR of synthetic intron excision in uveal melanoma cells; assay type: cell-based; details: endogenous SF3B1R625G
Description: FIGS. 9A-9H: Branchpoint manipulation and combinatorial 3′ss mutations enhance SF3B1 mutation-dependent splicing. (9A) Diagrams of modifications in each intron relative to synMTERFD3i1-150. Deletions are specified as open intervals. Branchpoints were inserted in between the indicated positions. (9B) Relative viability of K562 cells expressing the indicated constructs, measured in the full screen. Relative viability estimated as fold-change in representation of each construct, measured by full-length intron sequencing from genomic DNA, at day 8 for GCV-treated relative to untreated samples. GCV concentration, 100 ug/mL. Vector is hPGK-PuroR-P2A-HSV-TK. Data represented as mean±s.d. Standard deviation was estimated as sample proportion standard deviation. (9C) Relative viability of K562 cells expressing the indicated constructs, measured in cells expressing each construct individually. […] Relative viability measured by ATP after 11 days of treatment and normalized to PBS-treated samples. […]
Total RNA was extracted using Direct-zol RNA Miniprep (Zymo Research). cDNA was synthesized using Superscript IV Reverse Transcriptase (Thermo Fisher Scientific) using the manufacturer's protocol. Amplicons were analyzed using agarose gel electrophoresis and quantified using ImageJ (Fiji). […]

[2] = system: T47D cells; experiment: T47D subcutaneous xenografts, doxycycline-inducible SF3B1 WT or K700E, GCV or PBS; assay type: in vivo, NSG mice; details: GCV vs PBS
[3] = system: SF3B1-mutant K562 cells; experiment: Mini-screen: pooled synthetic intron mini-library in HSV-TK, GCV treatment, full-length intron sequencing from genomic DNA; assay type: cell-based; details: genotype K700E (SF3B1+/K700E) K562; GCV 100 ug/mL; day 6; vector hPGK-PuroR-P2A-HSV-TK
Description: (§1) Therefore, a massively parallel splicing assay was developed to map and functionally interrogate key sequence features within the synthetic intron. First, a pilot mini-library of eight synthetic introns was synthesized, seven of which were much shorter (lengths of 100-158 nt) than the parent synthetic intron (synMTERFD3i1-250), and each with one or more perturbations to potentially critical features (FIG. 2E). This mini-library was cloned into HSV-TK, introduced into WT or SF3B1-mutant K562 cells with a lentiviral vector at a low multiplicity of infection, and treated with GCV. Relative depletion of each construct was measured by high-throughput sequencing of the entire introns from genomic DNA after six days of treatment (TABLE 1).
(§2) Each synthetic intron used in the mini-library was ordered individually as a gBlock (Integrated DNA Technologies), consisting of the desired intron flanked by homology arms for cloning (5′ arm: […] (SEQ ID NO:158); 3′ arm: […] (SEQ ID NO:159; TABLE 3). The gBlocks were then mixed in equal proportions before being cloned into hPGK-PuroR-P2A-HSV-TK using a previously published strategy for pooled cloning (Thomas, J. D. et al. RNA isoform screens uncover the essentiality and tumor-suppressor activity of ultraconserved poison exons. Nature genetics 52, 84-94 (2020), incorporated herein by reference in its entirety). This intron mix was then amplified using NEBNext High Fidelity Ready Mix (New England Biolabs) and purified using 1.8×AMPure XP SPRI beads (Beckman Coulter). The backbone for the library was amplified using Q5 polymerase (New England Biolabs). The library was transformed and amplified using Endura ElectroCompetent Cells (Lucigen, 60242-2) and large LB plates. The library was maxiprepped using a Macherey-Nagel MaxiPrep kit (Thermo Fisher Scientific, Cat 740414.10).
(§3) WT or SF3B1-mutant K562 cells were infected with lentivirus encoding the mini-library at an MOI of 0.3 and untreated or treated with GCV (100 ug/mL) for 6 days. Genomic DNA was collected at day 6 and the resulting Illumina libraries were sequenced with 2×150 bp reads (Illumina MiSeq). Depletion/enrichment of each construct was estimated as follows. For each sample, reads were normalized to the total reads mapped. The relative fraction of reads mapping to each intron was then estimated by dividing the numbers of normalized reads mapped to an intron by the total reads mapped in the sample. The standard deviation was calculated using the sample proportion P for each intron (σ=sqrt [P(1−P)/n]). A fold-change was calculated for each intron by dividing the proportion of the intron in the treated GCV samples by the fraction of the intron in the untreated samples. Error propagation was used to estimate the standard deviation. The final relative fold-changes were computed by normalizing fold-changes such that the fold-change of synMTERFD3i1-250 in the pilot screen was identical to the experimentally measured fold-change in a single-construct experiment (FIG. 2C, 100 μg/mL of GCV).

[4] = system: WT K562 cells; experiment: as above; assay type: cell-based; details: genotype WT (SF3B1+/+) K562; GCV 100 ug/mL; day 6; vector hPGK-PuroR-P2A-HSV-TK
Description: as §1, §2, §3

B1: intron_26: 150 nt MTERFD3 intron 1-derived synthetic intron, deletion 25to125; SEQ ID NO 58/66 (nucleic acid)
DNA 1: GTGAGTCGCCCCCTTCCTCTGCTCCGAGAGGGAAATGGGAATTAGGGTGGTGGCAGAGCCCAAAGAGGCCTTGTAGGCCATGGTAAGGCATTTCTATGTTTTATTTTACTTTGTCTTTATCCTAAAATGCCATTGGCAAGTTTATTGCAG
DNA 2: GTGAGTCGCCCCCTTCCTCTGCTCCGAGAGGGAAATGGGAATTAGGGTGGTGGCAGAGCCCAAAGAGGCCTTGTAGGCCATGGTAAGGCATTTCTATGTTTTATTTTACTTTGTCTTTATCCTAAAATGCCATTGGCAAGTTTATTGCAG
**Q.** For B1, which “excision / splicing of the synthetic intron (RT-PCR)” value [1] is on record?
**A.** Its value is “excised in the context of endogenous SF3B1R625G, although less efficiently than for SF3B1K700E”.

**Q.** And the “tumor burden (tumor volume)” value [2]?
**A.** The value was “specifically reduced tumor burden in the GCV-treated arm engrafted with SF3B1K700E-expressing cells”.

**Q.** What about the “fold-change (estimated fold-change in intron abundance in gDNA)” value [3] of the same molecule?
**A.** Its value is 0.282.

**Q.** And the “fold-change (estimated fold-change in intron abundance in gDNA)” value [4]?
**A.** The value was 1.034.
